Key:
Rad50-K1181A K1183A = target: T1, Rad50-K1181A K1183A (Saccharomyces cerevisiae, UniProt P12753 1-1312, K1181A;K1183A); assay: EMSA
T1 sequence: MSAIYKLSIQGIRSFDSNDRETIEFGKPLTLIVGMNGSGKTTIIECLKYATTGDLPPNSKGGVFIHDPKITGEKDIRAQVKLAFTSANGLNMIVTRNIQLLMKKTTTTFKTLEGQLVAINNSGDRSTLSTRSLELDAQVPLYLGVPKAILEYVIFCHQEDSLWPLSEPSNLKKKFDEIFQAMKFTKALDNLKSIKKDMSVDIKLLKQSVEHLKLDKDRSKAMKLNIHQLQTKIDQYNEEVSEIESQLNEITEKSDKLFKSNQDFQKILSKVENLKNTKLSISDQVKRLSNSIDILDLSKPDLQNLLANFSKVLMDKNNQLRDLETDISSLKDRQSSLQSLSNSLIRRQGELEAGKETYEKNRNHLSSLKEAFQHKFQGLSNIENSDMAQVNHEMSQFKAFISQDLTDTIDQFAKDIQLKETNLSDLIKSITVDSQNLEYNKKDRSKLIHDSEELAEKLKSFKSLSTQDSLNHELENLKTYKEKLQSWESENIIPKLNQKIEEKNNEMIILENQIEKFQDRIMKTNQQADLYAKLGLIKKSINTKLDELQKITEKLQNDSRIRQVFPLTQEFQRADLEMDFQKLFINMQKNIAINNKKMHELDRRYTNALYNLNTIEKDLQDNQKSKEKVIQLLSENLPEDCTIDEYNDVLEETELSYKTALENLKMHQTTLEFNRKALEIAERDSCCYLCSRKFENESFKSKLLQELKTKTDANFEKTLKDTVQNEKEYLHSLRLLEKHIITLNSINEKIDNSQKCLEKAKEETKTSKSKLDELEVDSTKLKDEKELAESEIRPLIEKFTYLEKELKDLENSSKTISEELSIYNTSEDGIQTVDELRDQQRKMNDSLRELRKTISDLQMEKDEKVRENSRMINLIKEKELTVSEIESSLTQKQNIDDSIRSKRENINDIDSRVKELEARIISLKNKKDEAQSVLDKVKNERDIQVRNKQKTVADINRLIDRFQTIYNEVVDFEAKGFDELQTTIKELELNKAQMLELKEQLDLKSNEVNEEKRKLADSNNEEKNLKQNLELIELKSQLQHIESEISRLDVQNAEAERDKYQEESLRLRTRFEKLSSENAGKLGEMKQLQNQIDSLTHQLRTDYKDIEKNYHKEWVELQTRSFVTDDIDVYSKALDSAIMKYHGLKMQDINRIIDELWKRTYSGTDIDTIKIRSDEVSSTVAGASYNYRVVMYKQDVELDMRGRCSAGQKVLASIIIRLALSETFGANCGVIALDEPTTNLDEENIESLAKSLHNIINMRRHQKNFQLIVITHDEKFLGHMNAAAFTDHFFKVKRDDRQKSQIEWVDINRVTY

Rad50-K173A K174A = target: T2, Rad50-K173A K174A (Saccharomyces cerevisiae, UniProt P12753 1-1312, K173A;K174A); assay: EMSA
T2 sequence: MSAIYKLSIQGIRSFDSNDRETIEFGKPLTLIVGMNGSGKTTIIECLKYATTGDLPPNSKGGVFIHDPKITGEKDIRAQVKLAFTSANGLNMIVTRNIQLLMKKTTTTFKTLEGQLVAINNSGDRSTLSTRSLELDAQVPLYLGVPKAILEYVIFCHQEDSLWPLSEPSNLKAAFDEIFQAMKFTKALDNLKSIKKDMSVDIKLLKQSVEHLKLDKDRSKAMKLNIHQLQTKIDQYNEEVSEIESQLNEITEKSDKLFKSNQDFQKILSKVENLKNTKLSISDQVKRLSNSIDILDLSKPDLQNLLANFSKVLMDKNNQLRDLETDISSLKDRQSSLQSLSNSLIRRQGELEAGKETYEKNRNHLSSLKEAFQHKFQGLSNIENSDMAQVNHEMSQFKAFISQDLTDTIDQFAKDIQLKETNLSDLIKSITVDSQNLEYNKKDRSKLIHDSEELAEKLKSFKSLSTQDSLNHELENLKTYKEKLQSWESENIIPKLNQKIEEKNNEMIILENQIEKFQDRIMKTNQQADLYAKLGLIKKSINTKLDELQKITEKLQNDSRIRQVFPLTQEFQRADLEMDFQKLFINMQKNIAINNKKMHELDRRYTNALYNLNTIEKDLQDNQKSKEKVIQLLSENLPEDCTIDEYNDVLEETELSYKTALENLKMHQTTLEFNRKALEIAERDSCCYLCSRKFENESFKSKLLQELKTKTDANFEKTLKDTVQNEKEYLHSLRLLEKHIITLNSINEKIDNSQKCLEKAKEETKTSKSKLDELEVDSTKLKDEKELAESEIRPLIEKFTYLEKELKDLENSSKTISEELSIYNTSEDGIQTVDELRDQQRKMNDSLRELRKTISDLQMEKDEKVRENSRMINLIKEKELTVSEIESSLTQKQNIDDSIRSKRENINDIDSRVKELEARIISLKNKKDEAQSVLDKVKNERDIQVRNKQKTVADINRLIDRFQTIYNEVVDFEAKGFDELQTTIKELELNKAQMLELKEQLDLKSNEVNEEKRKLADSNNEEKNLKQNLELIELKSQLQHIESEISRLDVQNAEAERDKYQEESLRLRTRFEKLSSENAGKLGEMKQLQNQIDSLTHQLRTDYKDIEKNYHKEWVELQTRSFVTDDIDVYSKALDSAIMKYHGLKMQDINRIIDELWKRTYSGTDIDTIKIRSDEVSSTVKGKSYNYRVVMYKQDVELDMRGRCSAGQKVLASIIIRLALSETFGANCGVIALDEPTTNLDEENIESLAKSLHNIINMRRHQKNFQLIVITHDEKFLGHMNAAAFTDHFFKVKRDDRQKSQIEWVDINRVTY

B1: 83-mer dsDNA (EMSA) (dsDNA)
DNA 1: TTGATAAGAGGTCATTTTTGCGGATGGCTTAGAGCTTAATTGCTGAATCTGGTGCTGTAGCTCAACATGTTTTAAATATGCAA
DNA 2: TTGCATATTTAAAACATGTTGAGCTACAGCACCAGATTCAGCAATTAAGCTCTAAGCCATCCGCAAAAATGACCTCTTATCAA
Does B1 bind (Rad50-K1181A K1183A)?
Result: binds

Does B1 bind (Rad50-K173A K174A)?
Result: binds
